Laboratory results from patent US20250320312A1 (OXITOPE PHARMA B V, published 2025).
Substitutions are numbered along the chain they refer to.

B1: PcOxP_DB02_F07 (scFv, V domains shown)
VH: EVQLLESGGGLVQPGGSLRLSCAASGFWFSDFYMEWVRQAPGKGLEWVAASRNKANDYTTEYADSVKGRFTISRDNSKNTLYLQMNSLRAEDTAVYYCARDYYGSSYWYFDVWGQGTLVTVSS
VL: DIQMTQSPSSLSASVGDRVTITCTASQSLYSSKNKVHYLAWYQQKPGKAPKLLIYGESNRYIGVPSRFSGSGSGTDFTLTISSLQPEDFATYYCAQFYSYPLTFGGGTKVEIK
notes: scFv in periplasmic extract
B2: PcOxP_DB03_G06 (scFv, V domains shown)
VH: B1 VH with W28T
VL: B1 VL with Q27E, N34H, E57A, S99E
notes: scFv in periplasmic extract
B3: PcOxP_DB02_G07 (scFv, V domains shown)
VH: B1 VH with W28T, F32G
VL: B1 VL with Q27E, N34H, E57A, I62G
notes: scFv in periplasmic extract
B4: PcOxP_DB03_A09 (scFv, V domains shown)
VH: B1 VH with W28T, F32Y
VL: B1 VL with Q27E, N34H, E57A, Y61G
notes: scFv in periplasmic extract
B5: PcOxP_DB03_A03 (scFv, V domains shown)
VH: B1 VH with W28T
VL: B1 VL with Q27E, N34H, E57A, N59F
notes: scFv in periplasmic extract
B6: PcOxP_DB02_F12 (scFv, V domains shown)
VH: B1 VH with W28T, F32A
VL: B1 VL with T24E, Q27E, N34H, E57A, I62P, S99E
notes: scFv in periplasmic extract
B7: PcOxP_DB03_E02 (scFv, V domains shown)
VH: B1 VH with F27W, W28T
VL: B1 VL with Q27E, S32Q, N34H, E57A, S99Y
notes: scFv in periplasmic extract
B8: PcOxP_DB02_G09 (scFv, V domains shown)
VH: B1 VH with W28T, F32Q
VL: B1 VL with Q27E, N34H, E57A, Y61P
notes: scFv in periplasmic extract
B9: PcOxP_DB03_F01 (scFv, V domains shown)
VH: B1 VH with W28T, S30N
VL: B1 VL with T24E, Q27E, N34H, E57A, Y61L, S99E
notes: scFv in periplasmic extract
B10: PcOxP_DB03_F10 (scFv, V domains shown)
VH: B1 VH with W28T, F32H, K54S, A55G, D57S
VL: B1 VL with Q27E, N34H, K35S, E57A, Y61F
notes: scFv in periplasmic extract
B11: PcOxP_DB02_H10 (scFv, V domains shown)
VH: B1 VH with W28T, F32Y
VL: B1 VL with Q27E, N34H, E57A, S58G, S99E
notes: scFv in periplasmic extract
B12: PcOxP_DB03_C12 (scFv, V domains shown)
VH: B1 VH with W28T, F32Y
VL: B1 VL with Q27E, N34H, E57A, I62G
notes: scFv in periplasmic extract
B13: PcOxP_DB03_E08 (scFv, V domains shown)
VH: B1 VH with W28T, D31S, K54A, V112L
VL: B1 VL with Q27E, N34H, E57A, S99F
notes: scFv in periplasmic extract
B14: PcOxP_DB03_D01 (scFv, V domains shown)
VH: B1 VH with W28T, F32E
VL: B1 VL with Q27E, N34H, E57A, S99Y
notes: scFv in periplasmic extract
B15: PcOxP_DB03_D08 (scFv, V domains shown)
VH: B1 VH with S106A
VL: B1 VL with Q27E, N34H, E57A
notes: scFv in periplasmic extract

Legend:
Assay in all cases: scFv ELISA
BSA = BSA (UniProt P02769)
Sequence of BSA (P02769 25-607 limits assumed): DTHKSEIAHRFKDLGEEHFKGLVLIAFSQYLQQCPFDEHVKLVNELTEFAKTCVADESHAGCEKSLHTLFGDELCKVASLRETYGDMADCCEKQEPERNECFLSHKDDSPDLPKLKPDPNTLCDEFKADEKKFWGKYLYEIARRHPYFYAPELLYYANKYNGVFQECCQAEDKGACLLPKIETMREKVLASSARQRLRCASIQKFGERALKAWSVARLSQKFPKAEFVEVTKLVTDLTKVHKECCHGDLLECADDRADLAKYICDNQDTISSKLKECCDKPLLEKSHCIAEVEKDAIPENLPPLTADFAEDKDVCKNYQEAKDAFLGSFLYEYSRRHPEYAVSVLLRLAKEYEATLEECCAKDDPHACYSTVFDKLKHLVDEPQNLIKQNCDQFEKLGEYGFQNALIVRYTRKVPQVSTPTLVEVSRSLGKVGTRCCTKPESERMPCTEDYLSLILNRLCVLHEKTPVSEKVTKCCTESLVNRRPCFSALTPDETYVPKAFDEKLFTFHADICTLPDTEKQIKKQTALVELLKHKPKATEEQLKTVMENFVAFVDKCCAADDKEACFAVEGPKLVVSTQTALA

[1] = biological target: Peptide 1: Biotin-…-[Tyr(PC)]-acid
[2] = biological target: Peptide 5: Biotin-…-[Tyr(PC)]-acid
[3] = biological target: T1, Peptide 4: Biotin-AGGGGSGGGGSGGGGSAAA-Tyr-acid (N-terminal biotin; C-terminal acid)
T1 construct: control peptide without PC
T1 peptide: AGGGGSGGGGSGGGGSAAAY
Procedure, shortened: (§1)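 Bound scFv was read as OD450 after HRP–anti-V5 detection, TMB development and HCl stop. PPE with BSA was incubated 1 h at RT on BSA-blocked wells coated overnight at 4° C. with peptide, or on streptavidin wells loaded 1 h with biotinylated PC-peptides at 1 μg/mL.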

[4] = biological target: T2, Peptide 8: Biotin-AEAAAKEAAAKEAAAKEAAAKAAA-Tyr-acid (N-terminal biotin; C-terminal acid)
T2 construct: control peptide without PC
T2 peptide: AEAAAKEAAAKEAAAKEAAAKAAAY
Procedure, shortened: as §1

Row | Binder | OD450 (BSA) [OD450] | OD450 [1] [OD450] | OD450 [2] [OD450] | OD450 [3] [OD450] | OD450 [4] [OD450]
1 | B1 | 0.1 | 0.43 | 0.91 | 0.05 | 0.05
2 | B2 | 0.1 | 2.48 | 2.01 | 0.06 | 0.06
3 | B3 | 0.1 | 0.52 | 0.99 | 0.05 | 0.09
4 | B4 | 0.09 | 1.02 | 1.09 | 0.05 | 0.05
5 | B5 | 0.09 | 0.54 | 0.81 | 0.06 | 0.06
6 | B6 | 0.07 | 0.5 | 0.81 | 0.04 | 0.04
7 | B7 | 0.11 | 2 | 1.49 | 0.06 | 0.05
8 | B8 | 0.1 | 0.35 | 0.71 | 0.05 | 0.04
9 | B9 | 0.09 | 0.58 | 0.8 | 0.05 | 0.05
10 | B10 | 0.09 | 0.65 | 0.85 | 0.05 | 0.07
11 | B11 | 0.08 | 1.43 | 1.39 | 0.05 | 0.05
12 | B12 | 0.09 | 2.74 | 1.77 | 0.05 | 0.05
13 | B13 | 0.09 | 0.87 | 0.92 | 0.05 | 0.05
14 | B14 | 0.08 | 2.51 | 1.6 | 0.05 | 0.05
15 | B15 | 0.1 | 0.54 | 0.57 | 0.05 | 0.05
